Legend:
SBP-RNF20 (baculovirus) = SBP-RNF20 (baculovirus) (human, UniProt Q5VTR2 1-975); assay: pull-down + SEC
SFB-RNF40 (baculovirus) = SFB-RNF40 (baculovirus) (human, UniProt O75150 1-1001); assay: pull-down + SEC
Sequence of SFB-RNF40 (baculovirus) (O75150 whole entry): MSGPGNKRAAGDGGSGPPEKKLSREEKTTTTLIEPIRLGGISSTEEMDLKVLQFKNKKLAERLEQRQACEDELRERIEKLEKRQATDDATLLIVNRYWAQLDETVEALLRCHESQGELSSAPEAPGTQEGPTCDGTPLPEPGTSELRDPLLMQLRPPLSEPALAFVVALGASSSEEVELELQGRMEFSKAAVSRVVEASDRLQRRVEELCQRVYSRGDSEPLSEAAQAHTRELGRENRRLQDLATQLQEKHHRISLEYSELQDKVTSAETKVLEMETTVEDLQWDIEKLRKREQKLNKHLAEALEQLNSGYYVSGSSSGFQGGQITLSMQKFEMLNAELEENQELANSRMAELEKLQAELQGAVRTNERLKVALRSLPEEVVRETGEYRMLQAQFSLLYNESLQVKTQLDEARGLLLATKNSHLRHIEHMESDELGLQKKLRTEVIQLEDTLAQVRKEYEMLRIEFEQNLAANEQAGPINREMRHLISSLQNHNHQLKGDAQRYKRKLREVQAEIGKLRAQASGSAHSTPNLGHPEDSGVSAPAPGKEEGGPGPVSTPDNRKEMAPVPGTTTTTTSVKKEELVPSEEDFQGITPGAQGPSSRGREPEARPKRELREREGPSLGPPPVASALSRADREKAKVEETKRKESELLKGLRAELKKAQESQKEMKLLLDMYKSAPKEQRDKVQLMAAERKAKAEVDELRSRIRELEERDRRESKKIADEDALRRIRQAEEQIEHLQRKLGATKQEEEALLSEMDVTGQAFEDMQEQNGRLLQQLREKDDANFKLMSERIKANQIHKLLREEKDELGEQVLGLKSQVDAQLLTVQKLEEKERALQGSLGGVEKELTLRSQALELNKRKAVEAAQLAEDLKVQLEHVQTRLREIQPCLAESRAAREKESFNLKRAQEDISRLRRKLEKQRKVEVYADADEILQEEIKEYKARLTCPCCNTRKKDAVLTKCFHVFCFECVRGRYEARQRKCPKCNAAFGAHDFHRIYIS

Sequence of SBP-RNF20 (baculovirus) (Q5VTR2 whole entry): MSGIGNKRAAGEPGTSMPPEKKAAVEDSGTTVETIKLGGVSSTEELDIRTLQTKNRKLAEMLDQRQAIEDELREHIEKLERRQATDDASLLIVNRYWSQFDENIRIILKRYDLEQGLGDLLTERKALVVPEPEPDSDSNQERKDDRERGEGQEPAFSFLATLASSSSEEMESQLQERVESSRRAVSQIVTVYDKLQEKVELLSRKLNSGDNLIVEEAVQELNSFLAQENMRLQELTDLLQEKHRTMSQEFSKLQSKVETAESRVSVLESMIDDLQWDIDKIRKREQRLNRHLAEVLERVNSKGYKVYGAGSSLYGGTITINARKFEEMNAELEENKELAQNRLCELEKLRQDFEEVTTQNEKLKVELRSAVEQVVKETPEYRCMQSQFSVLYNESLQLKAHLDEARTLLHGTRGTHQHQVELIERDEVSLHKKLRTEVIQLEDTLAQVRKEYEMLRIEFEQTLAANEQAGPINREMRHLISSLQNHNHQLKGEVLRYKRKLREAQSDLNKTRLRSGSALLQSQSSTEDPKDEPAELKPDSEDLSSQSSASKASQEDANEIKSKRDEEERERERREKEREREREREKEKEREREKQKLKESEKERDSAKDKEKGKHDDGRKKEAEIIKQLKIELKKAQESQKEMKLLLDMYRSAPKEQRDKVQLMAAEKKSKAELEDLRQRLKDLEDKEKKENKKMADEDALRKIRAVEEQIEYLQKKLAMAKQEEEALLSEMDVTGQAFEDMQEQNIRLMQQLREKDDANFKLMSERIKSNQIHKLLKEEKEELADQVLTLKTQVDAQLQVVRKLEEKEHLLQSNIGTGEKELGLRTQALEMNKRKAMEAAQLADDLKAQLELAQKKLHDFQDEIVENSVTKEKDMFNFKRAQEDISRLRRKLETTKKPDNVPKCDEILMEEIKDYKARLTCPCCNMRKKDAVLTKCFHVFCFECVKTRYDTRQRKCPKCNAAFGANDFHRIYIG

B1: untagged WAC (baculovirus) (natural protein, UniProt Q9BTA9 1-647, looked up)
chain: MVMYARKQQRLSDGCHDRRGDSQPYQALKYSSKSHPSSGDHRHEKMRDAGDPSPPNKMLRRSDSPENKYSDSTGHSKAKNVHTHRVRERDGGTSYSPQENSHNHSALHSSNSHSSNPSNNPSKTSDAPYDSADDWSEHISSSGKKYYYNCRTEVSQWEKPKEWLEREQRQKEANKMAVNSFPKDRDYRREVMQATATSGFASGMEDKHSSDASSLLPQNILSQTSRHNDRDYRLPRAETHSSSTPVQHPIKPVVHPTATPSTVPSSPFTLQSDHQPKKSFDANGASTLSKLPTPTSSVPAQKTERKESTSGDKPVSHSCTTPSTSSASGLNPTSAPPTSASAVPVSPVPQSPIPPLLQDPNLLRQLLPALQATLQLNNSNVDISKINEVLTAAVTQASLQSIIHKFLTAGPSAFNITSLISQAAQLSTQAQPSNQSPMSLTSDASSPRSYVSPRISTPQTNTVPIKPLISTPPVSSQPKVSTPVVKQGPVSQSATQQPVTADKQQGHEPVSPRSLQRSSSQRSPSPGPNHTSNSSNASNATVVPQNSSARSTCSLTPALAAHFSENLIKHVQGWPADHAEKQASRLREEAHNMGTIHMSEICTELKNLRSLVRVCEIQATLREQRILFLRQQIKELEKLKNQNSFMV
stoichiometry N (SBP-RNF20 (baculovirus)): ~1 WAC per RNF20 (2:2) | stoichiometry N (SFB-RNF40 (baculovirus)): ~1 WAC per RNF40 (2:2)
